{"source": "paper PMC10781750", "about": "“Structural basis of antiphage immunity generated by a prokaryotic Argonaute-associated SPARSA system” (Nature Communications, 2024)", "target": "T1, GsSir2 (Sir2-APAZ protein of the SPARSA system from Geobacter sulfurreducens) (Geobacter sulfurreducens, UniProt Q74DF6 1-586)", "T1 construct": "GsSir2 of Geobacter sulfurreducens, NP_952413.1; That the His tag sits on GsSir2, the first gene of Sir2-RBS-pAgo, is surmised; source: E. coli BL21(DE3), coexpressed with pAgo, purified (Ni-NTA, Superdex 200 SEC)", "T1 sequence": "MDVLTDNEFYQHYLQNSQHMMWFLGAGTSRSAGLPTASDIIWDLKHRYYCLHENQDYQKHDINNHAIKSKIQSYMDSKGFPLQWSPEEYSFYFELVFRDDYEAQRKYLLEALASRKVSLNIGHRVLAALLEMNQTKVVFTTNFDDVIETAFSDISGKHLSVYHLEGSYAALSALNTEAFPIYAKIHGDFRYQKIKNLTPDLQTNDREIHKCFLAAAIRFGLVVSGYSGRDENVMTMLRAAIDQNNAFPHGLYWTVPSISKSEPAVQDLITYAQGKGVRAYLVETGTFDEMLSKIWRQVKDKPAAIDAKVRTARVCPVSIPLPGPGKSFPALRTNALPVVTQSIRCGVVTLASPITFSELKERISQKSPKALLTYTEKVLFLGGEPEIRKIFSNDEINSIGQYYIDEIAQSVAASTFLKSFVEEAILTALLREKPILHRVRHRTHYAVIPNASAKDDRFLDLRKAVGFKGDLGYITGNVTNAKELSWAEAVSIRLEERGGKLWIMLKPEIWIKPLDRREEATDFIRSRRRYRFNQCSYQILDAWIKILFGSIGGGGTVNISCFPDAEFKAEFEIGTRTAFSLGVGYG", "experiment": "cryo-EM structure; SPARSA heterodimer (GsSir2 + pAgo) coexpressed and co-purified, endogenous NAD+ bound, no nucleic acids; 2 mg/mL; 3.6 Å", "conditions": "both partners purified"}
{"binder": "pAgo (short prokaryotic Argonaute of the SPARSA system from Geobacter sulfurreducens) (natural protein, short pAgo of Geobacter sulfurreducens, NP_952414.1; MID domain residues 1-218, PIWI domain residues 219-473; no tag of its own is described; also called short pAgo; source: E. coli BL21(DE3), coexpressed with GsSir2, purified (Ni-NTA, Superdex 200 SEC)) not shown", "values": [{"measurement": "stoichiometry N", "value": 1}]}
